Results taken from patent US9926369B2, “Methods for treating hepatocellular cancer by administering an anti-Ang-2 antibody” (Regeneron Pharmaceuticals, Inc., priority 2009, dated 2018).

How the values were obtained:
[1] = molecular target: T1, hAng-2 WT binding to Tie-2 (Homo sapiens, UniProt O15123); experiment: ELISA blocking of full-length hAng-2 WT binding to hTie-2-mFc; type: biochemical
T1 construct: Full-length human Ang-2 or Ang-1 protein conjugated to 6× histidine tag (R&D Systems, Minneapolis, Minn.); purchased R&D Systems
T1 sequence (O15123 19-496): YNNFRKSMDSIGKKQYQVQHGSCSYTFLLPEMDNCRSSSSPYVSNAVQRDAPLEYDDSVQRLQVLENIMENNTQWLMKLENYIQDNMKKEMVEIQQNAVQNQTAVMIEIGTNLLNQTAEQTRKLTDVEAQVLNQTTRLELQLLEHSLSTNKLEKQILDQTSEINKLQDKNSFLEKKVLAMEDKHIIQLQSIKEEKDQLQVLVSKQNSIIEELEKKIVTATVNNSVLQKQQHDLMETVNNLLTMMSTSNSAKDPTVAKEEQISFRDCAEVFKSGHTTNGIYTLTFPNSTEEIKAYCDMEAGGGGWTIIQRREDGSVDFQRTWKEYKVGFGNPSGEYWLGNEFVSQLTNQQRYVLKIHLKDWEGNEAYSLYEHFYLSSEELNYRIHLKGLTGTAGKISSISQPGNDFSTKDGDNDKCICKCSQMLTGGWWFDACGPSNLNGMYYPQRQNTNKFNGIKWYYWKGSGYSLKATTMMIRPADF
Description: The ELISA experiments shown in this Example were conducted in a similar manner to the experiments of Example 5. Briefly, hTie-2-mFc (a chimeric construct consisting of human Tie-2 conjugated to mouse IgG; SEQ ID NO:525) was coated onto 96-well plates at a concentration of 2 μg/ml and incubated overnight followed by washing four times in wash buffer (PBS with 0.05% Tween-20). The plate was then blocked with PBS (Irvine Scientific, Santa Ana, Calif.) containing 0.5% BSA (Sigma-Aldrich Corp., St. Louis, Mo.) for one hour at room temperature. In a separate plate, purified anti-Ang-2 antibodies and control constructs, at a starting concentration of 300 nM, were serially diluted by a factor of three across the plate. Full-length human Ang-2 or Ang-1 protein conjugated to 6× histidine tag (R&D Systems, Minneapolis, Minn.) were added to a final concentration of 0.6 nM and incubated for one hour at room temperature. The antibody/antigen mixture was then added to the plate containing hTie-2-mFc and incubated for one hour at room temperature. Detection of Ang-2-His or Ang-1-His bound to hTie-2-mFc protein was determined with Horse-Radish Peroxidase (HRP) conjugated to a-Penta-His antibody (Qiagen, Valencia, Calif.) and developed by standard colorimetric response using tetramethylbenzidine (TMB) substrate (BD Biosciences, San Jose, Calif.). Absorbance was read at OD450 for 0.1 sec. […]

[2] = molecular target: T2, Human Ang-2FD-hFc binding to hTie-2-mFc (Homo sapiens, UniProt O15123); experiment: ELISA blocking of human Ang-2FD-hFc binding to hTie-2-mFc; type: biochemical; conditions: 16.67 nM antibody; 2 nM Ang-2FD-hFc
T2 sequence (O15123 282-496): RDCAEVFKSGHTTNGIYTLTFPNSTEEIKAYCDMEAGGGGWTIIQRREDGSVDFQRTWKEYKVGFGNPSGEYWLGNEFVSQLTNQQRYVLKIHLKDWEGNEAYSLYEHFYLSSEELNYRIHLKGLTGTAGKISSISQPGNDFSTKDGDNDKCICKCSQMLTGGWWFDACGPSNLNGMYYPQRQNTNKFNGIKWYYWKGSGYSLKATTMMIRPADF
Description: Tie-2 is a natural receptor for Ang-2. Anti-Ang-2 antibodies were tested for their ability to block Ang-2 binding to human Tie-2 (hTie-2). hTie-2-mFc (a chimeric construct consisting of human Tie-2 conjugated to mouse IgG; SEQ ID NO:525) was coated onto 96-well plates at a concentration of 2 μg/ml and incubated overnight followed by washing four times in wash buffer (PBS with 0.05% Tween-20). The plate was then blocked with PBS (Irvine Scientific, Santa Ana, Calif.) containing 0.5% BSA (Sigma-Aldrich Corp., St. Louis, Mo.) for one hour at room temperature. In a separate plate, purified anti-Ang-2 antibodies, at a starting concentration of 50 nM, were serially diluted by a factor of three across the plate. Human, mouse or monkey Ang-2FD protein conjugated to human IgG (Ang-2FD-hFc) were added to final concentrations of 2 nM, 8 nM, or 2 nM respectively and incubated for one hour at room temperature. The antibody/Ang-2FD-Fc mixture was then added to the plate containing hTie-2-mFc and incubated for one hour at room temperature. Detection of Ang-2FD-hFc bound to hTie-2-mFc protein was determined with Horse-Radish Peroxidase (HRP) conjugated to a-human IgG antibody (Jackson Immuno Research Lab, West Grove, Pa.) and developed by standard colorimetric response using tetramethylbenzidine (TMB) substrate (BD Biosciences, San Jose, Calif.). Absorbance was read at OD450 for 0.1 sec.

[3] = molecular target: Dimeric Monkey Ang-2FD-hFc; experiment: Cross-species SPR binding at 25° C. or 37° C., monkey Ang-2FD-hFc
Description: Additional binding experiments were conducted using selected anti-Ang-2 antibodies at two different temperatures to further assess cross-species affinity. Each selected antibody or control construct was captured at a flow rate of 40 μL/min for 1 minute on a goat anti-human kappa polyclonal antibody surface created through direct chemical coupling to a BIACORE™ chip to form a captured antibody surface. Human, monkey and mouse Ang-2FD-Fc at a concentration of 25 nM or 0.78 nM was injected over the captured antibody surface at a flowrate of 60 μL/min for 3 minutes, and antigen-antibody dissociation was monitored in real time for 20 minutes at either 25° C. or 37° C.

Dimeric Monkey Ang-2FD-hFc, sequence (as listed by the source): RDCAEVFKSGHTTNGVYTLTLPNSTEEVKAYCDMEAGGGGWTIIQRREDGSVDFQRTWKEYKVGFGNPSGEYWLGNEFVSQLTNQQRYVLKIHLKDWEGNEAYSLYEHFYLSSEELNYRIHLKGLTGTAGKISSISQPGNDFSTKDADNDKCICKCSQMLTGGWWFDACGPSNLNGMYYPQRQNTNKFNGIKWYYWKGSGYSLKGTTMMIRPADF

**Q.** Which results are given for “H1H685P: human anti-Ang-2 antibody, HCVR/LCVR SEQ ID NOs 18/20; also referred to as mAb1 [Antibody H1H685P]”?
**A.** IC50 ([1]; 0.6 nM hAng-2-His, read-out: (1) Blocking hAng-2 WT to Tie-2 IC50): 0.129 nM; (3) Fold Difference in hAng-1 Blocking IC50 Compared to h-Ang-2 Blocking IC50 ([1]; hAng-1 blocking IC50 divided by hAng-2 blocking IC50): >2318; Percent Blocking of Ang-2FD Binding to Tie-2, Human Ang-2FD-hFc [2]: 93.8%; Kd ([3]; 25° C.): 0.022 nM; Kd ([3]; 37° C.): 0.0721 nM
